One block for each molecule: values may come before it.
Key:
[1] = tested on: GAL4 DNA binding sites (UAS-Luc, pFR-Luc reporter); assay: GAL4 DNA binding domain fusion transactivation assay (pFR-Luc) in HEK 293 cells; type: cell-based; conditions: normalized to pCMV-BD vector
Description: To determine if CREAP proteins can act as a transcription activators, various regions of all 3 CREAP homologs (amino acids 300-650 of CREAP1, amino acids 296-694 of CREAP2 and amino acids 335-635 of CREAP3) were expressed as fusion proteins with the DNA binding domain of GAL4 and tested for the ability to activate expression of a reporter gene linked to GAL4 protein binding sequences (UAS-Luc (pFR-Luc reporter). Briefly, the indicated regions of CREAP1, CREAP2 and CREAP3 were amplified by PCR and subcloned in frame into pCMV-BD vector (Stratagene) encoding GAL4 DNA binding domain. Selected plasmids and empty vector (pCMV-SPORT6) were transfected into HEK 293 cells at 75 ng/well using Fugene6 transfection reagent (Roche) as described above. pFR-Luc reporter (Stratagene) encoding firefly luciferase gene driven by minimal promoter linked to 5 concatamerized GAL4 binding sites (UAS) was co-transfected at 100 ng/well. As a positive control, the reporter was also co-transfected with a plasmid encoding GAL4-CREB fusion protein (Stratagene) alone or in the presence of pFC-PKA an expression construct encoding catalytic subunit of protein kinase A (Stratagene) to activate the CREB kinase inducible activation domain. Fold induction was compared to the reporter's activity measured in the cells transfected with pCMV-BD an expression vector carrying GAL4 DNA binding domain only.
Expression constructs encoding full length CREAP1, CREAP2 and CREAP3 as well as a Gal4 DNA binding domain alone or fused with C-terminal portions of CREAP1, CREAP2 and CREAP3 were tested for the ability to induce expression of a luciferase gene controled by a minimal promoter linked to GAL4 DNA binding sites (pFRLuciferase). The data shown are normalized to the value seen with pCMV-BD vector co-transfected with pFR-Luc reporter.

[2] = tested on: minimal promoter linked to multiple copies of CRE; assay: CRE-Luc reporter co-transfection assay with the CREAP gene family; type: cell-based; conditions: for CRE: level of expression of luciferase relative to empty vector: cotransfection, relative to empty pCMV-SPORT6 vector
Description: (§1) The entire amino acid sequence for CREAP1 was used in a BLASTP search of a public NCBI database. Initially two public domain cDNAs (XM—117201 and FLJ00364) were identified that have significant homology to the CREAP1 coding region. The nucleotide sequence of XM—117201 was used in a BLASTN search (Altschul S. F. et al., Nucleic Acids Res. 25:3389-3402 (1997)) of a proprietary cDNA library EST database and 4 clones were identified that represent XM—117201 public sequence. All 4 clones were functionally tested upon co-transfection with the CRE-Luc and IL-8p-Luc reporters initially found to be induced by CREAP using methods similar to those disclosed above. Briefly, trypsinized HeLa cells are resuspended in complete growth media at 6×10^4 cells/ml and distributed into white 96-well plates (Costar) in the volume of 100 μl per well. Cells are left overnight in a tissue culture incubator at 37° C. and 5% CO2. pGL3B-IL-8p-Luc reporter plasmid or CRE-Luc reporter (BD Biosciences) as well as tested cDNAs are resuspended in OptiMEM I low serum media (GIBCO BRL) at 25 ng/ml. The reporter plasmids and cDNAs are then distributed into 96-well clean PCR plates (ABGene) at 4 μl/well and 3 μl/well respectively. Mixture containing Fugene 6 reagent (Roche Applied Bioscience) at 1.5 μl per transfection and pRL-SV40 (Promega) plasmid 20 ng per transfection is added in the volume of 10 μl per well of the 96-well PCR plate containing prediluted cDNAs. […]
(§2) The activity of firefly and Renilla luciferase is measured using the DualGlo Luciferase Assay System (Promega) following the protocol supplied by the manufacturer. Briefly, 115 μl of freshly reconstituted luciferase reagent is added to each well of the 96-well tissue culture plates with a Multidrop 384 and, after 15 minutes incubation, luminescence is read on a LUMINOSKAN Ascent Luminometer (Thermo Labsystems) with a 400 msec integration time. Subsequently, 115 μl of Stop-and-Glo reagent is added to each well of the 96-well tissue culture and, after 15 minutes incubation, luminescence is read on a LUMINOSKAN Ascent Luminometer with a 200 msec integration time. The activity of each tested cDNA is measured as a ratio of the corresponding firefly and Renilla luciferase activities.
To investigate this, the ability of CREAP2 and CREAP3 to activate gene expression driven by the IL-8 promoter and a CRE-dependent promoter was tested in co-transfection assays as disclosed above. Briefly, the levels of expression of a luciferase reporter driven by either the IL-8 promoter or a minimal promoter linked to 4 copies of CRE were determined after cotransfection with either an empty pCMV-SPORT6 expression vector or with the same vector carrying a cDNA for CREAP1, CREAP2 or CREAP3. […]

Interleukin-8 promoter = assay: IL-8 promoter luciferase reporter co-transfection assay with the CREAP gene family; type: cell-based, human; conditions: cotransfection, relative to empty pCMV-SPORT6 vector
Description: as §1, with “respectively.” for “respectively. Mixture containing Fugene 6 reagent (Roche Applied Bioscience) at 1.5 μl per transfection and pRL-SV40 (Promega) plasmid 20 ng per transfection is added in the volume of 10 μl per well of the 96-well PCR plate containing prediluted cDNAs.”
as §2, with “activities. […]” for “activities.”

GAL4-CREB fusion protein = assay: GAL4-CREB activation assay in HLR cell line; type: cell-based; conditions: HLR cell line with integrated pFR-Luc reporter, normalized to pCMV-BD vector
Description: To determine if CREAP proteins can directly activate CREB1 protein, the expression constructs of CREAP1, CREAP2 and CREAP3 were transfected individually or with GAL4-CREB plasmid (Stratagene) into HLR cell line (Stratagene) carrying genomic DNA integrated copies of pFR-Luc reporter. Briefly, HLR cells were maintained per manufacturer's instructions. Selected plasmids and either empty vector (pCMV-BD) or GAL4-CREB plasmid were transfected at 75 ng/well using Fugene6 transfection reagent (Roche) as described above. As a positive control pFC-PKA an expression construct encoding catalytic subunit of protein kinase A (Stratagene) was also co-trasfected with GAL4-CREB. Fold of activation was compared to the reporter's activity measured in the cells transfected with empty vector.
The ability of full length CREAP1, CREAP2 and CREAP3 to induce the activity of GAL4-CREB fusion protein (Stratagene) was tested. The data presented are normalized to the value seen with pCMV-BD vector. […] Note the fold induction obtained with positive control is lower when compared to the data from Table 6 when all the plasmids including the reporter were transiently transfected.

human IL-8 promoter = assay: pGL2-IL-8p-Luc reporter inducibility in HEK 293 cells; type: cell-based; conditions: expression construct co-transfected into HEK 293 cells, 48 hours post transfection
Description: A luciferase reporter controlled by a 1.5 kB IL-8 promoter containing fragment of human IL-8 promoter was tested for inducibility by known regulators of cytokine-mediated gene expression. pNF-κB-Luc (BD Biosciences) and pGL2-IL-8p-Luc reporters were co-transfected into HEK 293 cells with expression constructs encoding known activators of the NF-κB pathway, truncated MEKK (AA 360-672) (Stratagene) and a full length TRAF6 cDNA made according to conventional methods using a proprietary clone collection. Cells co-transfected with empty pCMV-Sport6 vector were either left untreated or treated with TNFα (50 ng/ml, for 16 hours). Luciferase activity was measured 48 hours post transfection. The pNF-κB-Luc reporter was used as a positive control.

CRE: level of expression of luciferase relative to empty vector [2]: 71.4
IL-8: level of expression of luciferase relative to empty vector (Interleukin-8 promoter): 574.5714
B1: CREAP3: human CREAP family protein of 619 amino acids, SEQ ID NO 25; reconstructed full-length FLJ00364 cDNA (protein)
chain: MAASPGSGSANPRKFSEKIALHTQRQAEETRAFEQLMTDLTLSRVQFQKLQQLRLTQYHGGSLPNVSQLRSNASEFQPSFHQADNVRGTRHHGLVERPSRNRFHPLHRRSGDKPGRQFDGSAFGANYSSQPLDESWPRQQPPWKDEKHPGFRLTSALNRTNSDSALHTSALSTKPQDPYGGGGQSAWPAPYMGFCDGENNGHGEVASFPGPLKEENLLNVPKPLPKQLWETKEIQSLSGRPRSCDVGGGNAFPHNGQNLGLSPFLGTLNTGGSLPDLTNLHYSTPLPASLDTTDHHFGSMSVGNSVNNIPAAMTHLGIRSSSGLQSSRSNPSIQATLNKTVLSSSLNNHPQTSVPNASALHPSLRLFSLSNPSLSTTNLSGPSRRRQPPVSPLTLSPGPEAHQGFSRQLSSTSPLAPYPTSQMVSSDRSQLSFLPTEAQAQVSPPPPYPAPQELTQPLLQQPRAPEAPAQQPQAASSLPQSDFQLLPAQGSSLTNFFPDVGFDQQSMRPGPAFPQQVPLVQQGSRELQDSFHLRPSPYSNCGSLPNTILPEDSSTSLFKDLNSALAGLPEVSLNVDTPFPLEEELQIEPLSLDGLNMLSDSSMGLLDPSVEETFRADRL
modifications: human
notes: reconstructed full-length FLJ00364 cDNA
Fold Induction [1]: 1.58
higher level of induction of gene expression compared to CREAP1 and CREAP2 ([2]; CRE and IL-8 promoter reporters): 2-4 fold
Fold Induction (GAL4-CREB fusion protein): 2.458

B2: TRAF6: full length TRAF6 cDNA expression construct; TNF receptor-associated factor 6 (protein, UniProt Q9Y4K3 1-522, looked up)
chain: MSLLNCENSCGSSQSESDCCVAMASSCSAVTKDDSVGGTASTGNLSSSFMEEIQGYDVEFDPPLESKYECPICLMALREAVQTPCGHRFCKACIIKSIRDAGHKCPVDNEILLENQLFPDNFAKREILSLMVKCPNEGCLHKMELRHLEDHQAHCEFALMDCPQCQRPFQKFHINIHILKDCPRRQVSCDNCAASMAFEDKEIHDQNCPLANVICEYCNTILIREQMPNHYDLDCPTAPIPCTFSTFGCHEKMQRNHLARHLQENTQSHMRMLAQAVHSLSVIPDSGYISEVRNFQETIHQLEGRLVRQDHQIRELTAKMETQSMYVSELKRTIRTLEDKVAEIEAQQCNGIYIWKIGNFGMHLKCQEEEKPVVIHSPGFYTGKPGYKLCMRLHLQLPTAQRCANYISLFVHTMQGEYDSHLPWPFQGTIRLTILDQSEAPVRQNHEEIMDAKPELLAFQRPTIPRNPKGFGYVTFMHLEALRQRTFIKDDTLLVRCEVSTRFDMGSLRREGFQPRSTDAGV
modifications: full-length
increase of IL-8 promoter-reporter activity (human IL-8 promoter): 4.9 times

CRE: level of expression of luciferase relative to empty vector [2]: 38.6
IL-8: level of expression of luciferase relative to empty vector (Interleukin-8 promoter): 126.8571
B3: CREAP2: human CREAP family protein of 693 amino acids, SEQ ID NO 16 (protein)
chain: MATSGANGPGSATASASNPRKFSEKIALQKQRQAEETAAFEEVMMDIGSTRLQAQKLRLAYTRSSHYGGSLPNVNQIGSGLAEFQSPLHSPLDSSRSTRHHGLVERVQRDPRRMVSPLRRYTRHIDSSPYSPAYLSPPPESSWRRTMAWGNFPAEKGQLFRLPSALNRTSSDSALHTSVMNPSPQDTYPGPTPPSILPSRRGGILDGEMDPKVPAIEENLLDDKHLLKPWDAKKLSSSSSRPRSCEVPGINIFPSPDQPANVPVLPPAMNTGGSLPDLTNLHFPPPLPTPLDPEETAYPSLSGGNSTSNLTHTMTHLGISRGHGPGPGYDAPGLHSPLSHPSLQSSLSNPNLQASLSSPQPQLQGSHSHPSLPASSLACHVLPTTSLGHPSLSAPALSSSSSSSSTSSPVLGAPSYPASTPGASPHHRRVPLSPLSLLAGPADARRSQQQLPKQFSPTMSPTLSSITQGVPLDTSKLSTDQRLPPYPYSSPSLVLPTQPHTPKSLQQPGLPSQSCSVQSSGGQPPGRQSHYGTPYPPGPSGHGQQSYHRPMSDFNLGNLEQFSMESPSASLVLDPPGFSEGPGFLGGEGPMGGPQDPHTFNHQNLTHCSRHGSGPNIILTGDSSPGFSKEIAAALAGVPGFEVSAAGLELGLGLEDELRMEPLGLEGLNMLSDPCALLPDPAVEESFRSDRLQ
modifications: human
Fold Induction [1]: 2.47
Fold Induction (GAL4-CREB fusion protein): 2.435
